Our source for the binding, Kd and stoichiometry N values is publication PMC5814911 (Nucleic Acids Research, 2017).

The target of data set [1] is T1, PobR (PobRFL) (Streptomyces coelicolor (cosmid StE8; M600 is the wild-type strain used)) (UniProt Q9Z4X2).
T1 sequence: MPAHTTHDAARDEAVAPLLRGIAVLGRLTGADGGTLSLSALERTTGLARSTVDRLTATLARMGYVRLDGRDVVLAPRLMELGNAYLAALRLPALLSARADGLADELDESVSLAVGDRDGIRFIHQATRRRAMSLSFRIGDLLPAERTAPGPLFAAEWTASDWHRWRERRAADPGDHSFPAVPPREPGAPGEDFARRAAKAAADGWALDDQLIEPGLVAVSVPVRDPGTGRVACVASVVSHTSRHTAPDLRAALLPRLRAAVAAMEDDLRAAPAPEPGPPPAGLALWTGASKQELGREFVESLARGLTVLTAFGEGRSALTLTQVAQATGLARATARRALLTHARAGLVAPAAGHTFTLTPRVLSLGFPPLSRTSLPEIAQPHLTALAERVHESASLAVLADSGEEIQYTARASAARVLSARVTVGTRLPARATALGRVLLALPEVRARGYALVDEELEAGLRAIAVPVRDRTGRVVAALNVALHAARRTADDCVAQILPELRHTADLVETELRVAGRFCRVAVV
Description: DNase I footprinting.

The next data set deals with T2, PobR (Streptomyces coelicolor, UniProt Q9Z4X2).
T2 sequence (Q9Z4X2 1-524): T1 sequence
Put plainly: ITC and crystal structure at […] Å. Format: binding.

The target in data set [2] is T1, PobR (PobRFL) (Streptomyces coelicolor (cosmid StE8; M600 is the wild-type strain used)). Put plainly: EMSA.
Data set [3] addresses PobR (product of SCO3209), full length, Streptomyces coelicolor (Streptomyces coelicolor). Description: SAXS.
Data set [4] shares this target. Put plainly: SEC. A general note: SEC sorts molecules by how far they enter the pores of the column.

Consider “GCATCGGTCGTTCCCTTCGATCGGCGTCGTTGCCTTGCTCGAGCCGGCAGTTGTTCGCGTCGCGTTGTCGCGTTGTCGCCTGTTCGCGTGGTGAAAATTTCTTCACCATCAACTGCGC (double strand) [118-bp pobA promoter probe, 5'-32P]”, for which, in data set [1], the binding entry was “binds”.

Regarding `O=C(O)c1ccc(O)cc1` [PHB, para-hydroxybenzoate], binding at PobR was put at a Kd of 5.8 ± 0.5 µM.

Consider “GCATCGGTCGTTCCCTTCGATCGGCGTCGTTGCCTTGCTCGAGCCGGCAGTTGTTCGCGTCGCGTTGTCGCGTTGTCGCCTGTTCGCGTGGTGAAAATTTCTTCACCATCAACTGCGC (double strand) [118-bp pobA promoter probe]”, for which the binding entry in data set [2] was “binds”.

Take “PobR (product of SCO3209), full length, Streptomyces coelicolor (natural protein)”: the stoichiometry N in data set [3] and in data set [4] was 2 each time.
